Measurements taken from publication PMC8633019 (2021).

Molecular target: SM α-actin (Homo sapiens, UniProt P62736)
Experiment: TIRF microscopy polymerization assay

B1: MRTF-A (protein)
chain: MPPLKSPAAFHEQRRSLERARTEDYLKRKIRSRPERSELVRMHILEETSAEPSLQAKQLKLKRARLADDLNEKIAQRPGPMELVEKNILPVESSLKEAIIVGQVNYPKVADSSSFDEDSSDALSPEQPASHESQGSVPSPLEARVSEPLLSATSASPTQVVSQLPMGRDSREMLFLAEQPPLPPPPLLPPSLTNGTTIPTAKSTPTLIKQSQPKSASEKSQRSKKAKELKPKVKKLKYHQYIPPDQKQDRGAPPMDSSYAKILQQQQLFLQLQILNQQQQQHHNYQAILPAPPKSAGEALGSSGTPPVRSLSTTNSSSSSGAPGPCGLARQNSTSLTGKPGALPANLDDMKVAELKQELKLRSLPVSGTKTELIERLRAYQDQISPVPGAPKAPAATSILHKAGEVVVAFPAARLSTGPALVAAGLAPAEVVVATVASSGVVKFGSTGSTPPVSPTPSERSLLSTGDENSTPGDTFGEMVTSPLTQLTLQASPLQILVKEEGPRAGSCCLSPGGRAELEGRDKDQMLQEKDKQIEALTRMLRQKQQLVERLKLQLEQEKRAQQPAPAPAPLGTPVKQENSFSSCQLSQQPLGPAHPFNPSLAAPATNHIDPCAVAPGPPSVVVKQEALQPEPEPVPAPQLLLGPQGPSLIKGVAPPTLITDSTGTHLVLTVTNKNADSPGLSSGSPQQPSSQPGSPAPAPSAQMDLEHPLQPLFGTPTSLLKKEPPGYEEAMSQQPKQQENGSSSQQMDDLFDILIQSGEISADFKEPPSLPGKEKPSPKTVCGSPLAAQPSPSAELPQAAPPPPGSPSLPGRLEDFLESSTGLPLLTSGHDGPEPLSLIDDLHSQMLSSTAILDHPPSPMDTSELHFVPEPSSTMGLDLADGHLDSMDWLELSSGGPVLSLAPLSTTAPSLFSTDFLDGHDLQLHWDSCL
- Kd: 3.3 µM
